# Test results published in paper PMC10500460.
# Experiments:
# PTPN13 = PTPN13 (UniProt Q12923); test: biotin-peptide pull-down from lysate, Western blot; details: reference: unphosphorylated E7 13-28 peptide; sites T19,T20
# PARD3 = PARD3 (UniProt Q8TEW0); test: biotin-peptide pull-down from lysate, Western blot; details: reference: unphosphorylated E7 13-28 peptide; sites T19,T20
# AP2-μ2 (APμ2-HA) = AP2-μ2 (APμ2-HA) (UniProt P84092); test: biotin-peptide pull-down from lysate, Western blot; details: reference: unphosphorylated E7 13-28 peptide; sites T19,T20
# pRb = pRb (UniProt P06400); test: biotin-peptide pull-down from lysate, Western blot; details: reference: unphosphorylated E7 13-28 peptide; sites T19,T20
# PTPN14 = PTPN14 (UniProt Q15678); test: GST pull-down after in vitro phosphorylation; details: reference: GST-E7 not kinase-treated; sites T5,T7,T19,T20
# IQGAP1 = IQGAP1 (UniProt P46940); test: GST pull-down after in vitro phosphorylation; details: reference: GST-E7 not kinase-treated; sites T5,T7,T19,T20
Substance,binding against the reference (PTPN13),binding against the reference (PARD3),binding against the reference (AP2-μ2 (APμ2-HA)),binding against the reference (pRb),binding against the reference (PTPN14),binding against the reference (IQGAP1)
HPV16 E7 13-28 (from UniProt P03129) pT19/pT20 E7 13-28 peptide,gained,gained,stronger,stronger,,
HPV16 E7 (from UniProt P03129) GST-E7 phosphorylated with CKI and GSK3,,,,,same,stronger
